Data on four molecules can be found in article PMC6821831, “Colorimetric Assay Reports on Acyl Carrier Protein Interactions” (Scientific Reports, 2019).

T1: holo-AcpP (E. coli FAS acyl carrier protein, 4'-phosphopantetheine arm installed) (E. coli), P0A6A8
T1 chain: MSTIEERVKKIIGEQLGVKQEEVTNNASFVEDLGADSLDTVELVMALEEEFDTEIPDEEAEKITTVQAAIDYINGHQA

B1: holo-AcpP (E. coli FAS acyl carrier protein, 4'-phosphopantetheine arm installed), P0A6A8 1-78 (natural protein)
chain: T1 chain
modifications: here or on the partner: 4'-phosphopantetheine (Ppant) arm on the conserved serine at the N-terminus of helix II (holo form); 4'-phosphopantetheine (Ppant) arm on the conserved serine at the N-terminus of helix II (holo form)
B2: holo-AcpP (E. coli FAS acyl carrier protein, 4'-phosphopantetheine arm installed) (natural protein, UniProt P0A6A8 1-78, looked up)
chain: T1 chain
modifications: 4'-phosphopantetheine (Ppant) arm on the conserved serine at the N-terminus of helix II (holo form)
notes: E. coli fatty acid synthase acyl carrier protein AcpP, UniProt P0A6A8; N- and C-terminal His6, from pKJ5535 or pTL14; AUC section gives 12.3 kDa for AcpP; also called E. coli ACP; source: E. coli BAP1, purified (Ni-NTA); converted to holo form on resin with Sfp R4-4 and coenzyme A
B3: AcpP-TNB− (E. coli AcpP with the Ppant thiol as mixed disulfide with 2-nitro-5-thiobenzoate) (natural protein, UniProt P0A6A8 1-78, looked up)
chain: T1 chain
modifications: 4'-phosphopantetheine arm on the conserved serine; its terminal thiol is a mixed disulfide with 2-nitro-5-thiobenzoate (TNB−)
notes: E. coli fatty acid synthase acyl carrier protein AcpP, UniProt P0A6A8; also called ACP-TNB−; AcpP-TNB− adduct; source: E. coli BAP1, purified (Ni-NTA), converted to holo form with Sfp R4-4, treated with DTNB, desalted (PD-10)
B4: FabF (E. coli ketoacyl synthase) (enzyme, UniProt P0AAI5 1-413, looked up)
chain: MSKRRVVVTGLGMLSPVGNTVESTWKALLAGQSGISLIDHFDTSAYATKFAGLVKDFNCEDIISRKEQRKMDAFIQYGIVAGVQAMQDSGLEITEENATRIGAAIGSGIGGLGLIEENHTSLMNGGPRKISPFFVPSTIVNMVAGHLTIMYGLRGPSISIATACTSGVHNIGHAARIIAYGDADVMVAGGAEKASTPLGVGGFGAARALSTRNDNPQAASRPWDKERDGFVLGDGAGMLVLEEYEHAKKRGAKIYAELVGFGMSSDAYHMTSPPENGAGAALAMANALRDAGIEASQIGYVNAHGTSTPAGDKAEAQAVKTIFGEAASRVLVSSTKSMTGHLLGAAGAVESIYSILALRDQAVPPTINLDNPDEGCDLDFVPHEARQVSGMEYTLCNSFGFGGTNGSLIFKKI
notes: E. coli ketoacyl synthase FabF; Sediments mostly as a dimer in SV-AUC; also called KS; E. coli KS FabF; source: E. coli BL21, purified (Ni-NTA)

For data set [1], the target named is T1, holo-AcpP (E. coli FAS acyl carrier …). The data set is described as follows: AUC; sedimentation velocity of each protein alone; FabF 10-36 uM, holo-AcpP 345-488 uM, holo-ACT ACP (wild type) 98-196 uM; 20 mM Tris-HCl pH 8.0, 150 mM NaCl, 1 mM DTT, 20 C. As to conditions: remark: other sources report otherwise.
Data set [2] concerns the target B4. The data set is described as follows: AUC; sedimentation velocity titration; FabF constant at 16 uM, AcpP 0-230 uM or ACT ACP 0-250 uM; 20 mM Tris-HCl pH 8.0, 150 mM NaCl, 1 mM DTT, 20 C; s(w) and EPT s(w) fast isotherms fitted globally to A + B <-> AB. The following applies: both partners purified.
In data set [3] the target is B4. Kind of data set: colorimetric read-out of the cross-linking (TNB2− release, A412); ACP-TNB− mixed with FabF at ACP-TNB:FabF molar ratios 0.2:1 to 3:1; 50 mM sodium phosphate pH 7.6, 20 min, room temperature; A412 of the reaction mixture. As to conditions: both partners purified.
Data set [4] concerns the molecule itself. The data set is described as follows: AUC; sedimentation velocity of each protein alone; FabF 10-36 uM, holo-AcpP 345-488 uM, holo-ACT ACP (wild type) 98-196 uM; 20 mM Tris-HCl pH 8.0, 150 mM NaCl, 1 mM DTT, 20 C.

B1 registered a stoichiometry N in data set [1] of 4.
For B2, the equilibrium dissociation constant (Kd) in data set [2] stood at 6.4 ± 2 µM.
Turning to B3, the “stoichiometry N” value in data set [3] was found to be 1.
For the molecule B4, in data set [4], the “stoichiometry N” value came to 2.
